The text below walks through data of article PMC4267625, “Ubiquitin recognition by FAAP20 expands the complex interface beyond the canonical UBZ domain” (Nucleic Acids Research, 2014).

The experiment addresses T1, human ubiquitin, wild type (human, UniProt P0CG48 1-76).
T1 construct: ubiquitin, human; the mature ubiquitin unit cut from its precursor; also called WT ubiquitin; source: E. coli BL21 STAR (DE3), purified (Ni-NTA, thrombin cleavage, benzamidine column, second Ni-NTA, Superdex 75); not shown: His6, N-terminal, cleaved
Nature of the experiment: ITC; ubiquitin (2-3 mM) titrated into FAAP20 (0.2-0.3 mM); 25 mM sodium phosphate, 100 mM KCl, pH 7.0; 25°C; 28 injections of 10 μl; one-site binding fit. The following applies: both partners purified. (In general: Isothermal titration calorimetry measures the heat released or taken up as one component is titrated into another.)

One may read the Kd as the equilibrium constant for the complex coming apart. Low readings indicate tighter binding, high ones weaker binding.

B1: human FAAP20 UBZ (residues 140-180 of FAAP20 isoform 2), wild type (domain or fragment, UniProt Q6NZ36 140-180, looked up)
chain: GAAALRSCPMCQKEFAPRLTQLDVDSHLAQCLAESTEDVTW
notes: ends at the C-terminal W180; ZnSO4 was added at induction; 15N/13C-labelled for NMR; also called WT FAAP20; apo FAAP20; source: E. coli BL21 STAR (DE3), purified (Ni-NTA, TEV cleavage, second Ni-NTA, Superdex 75); not shown: His10, N-terminal, cleaved; GB1, N-terminal, cleaved
Molecule B1 came in with a Kd of 9.26 µM.

B2: human FAAP20 UBZ A168Y (domain or fragment, UniProt Q6NZ36 140-180, looked up)
chain: GAAALRSCPMCQKEFAPRLTQLDVDSHLYQCLAESTEDVTW
notes: source: E. coli BL21 STAR (DE3), purified (Ni-NTA, TEV cleavage, second Ni-NTA, Superdex 75); not shown: His10, N-terminal, cleaved; GB1, N-terminal, cleaved
Molecule B2 displayed a Kd greater than 600 µM.

B3: human FAAP20 UBZ D164A (domain or fragment, UniProt Q6NZ36 140-180, looked up)
chain: GAAALRSCPMCQKEFAPRLTQLDVASHLAQCLAESTEDVTW
notes: as for B2
Molecule B3 displayed a Kd greater than 600 µM.

B4: human FAAP20 UBZ L171A (domain or fragment, UniProt Q6NZ36 140-180, looked up)
chain: GAAALRSCPMCQKEFAPRLTQLDVDSHLAQCAAESTEDVTW
notes: as for B2
With B4, the Kd turned out to be 529 µM.

B5: human FAAP20 UBZ W180A (domain or fragment, UniProt Q6NZ36 140-180, looked up)
chain: GAAALRSCPMCQKEFAPRLTQLDVDSHLAQCLAESTEDVTA
notes: also called FAAP20 W180A mutant; source: E. coli BL21 STAR (DE3), purified (Ni-NTA, TEV cleavage, second Ni-NTA, Superdex 75); not shown: His10, N-terminal, cleaved; GB1, N-terminal, cleaved
For the molecule B5, the Kd is greater than 600 µM.
